Numbering of substitutions follows the chain as printed. Read-outs that look alike come from different tables or passages of the source.
Tests used:
human CD3 [1] = target: T1, human CD3 (human, UniProt P07766 23-207; P04234 22-171; P09693 23-182); assay: FACS on HEK293T-hCD3mix cells; further: test concentration or dose not given here
T1 construct: whole, on cells; also called hCD3; CD3 on Jurkat cells

human CD3 [2] = target: T1, human CD3; assay: FACS on Jurkat cells
human CD3 [3] = target: T1, human CD3; assay: cell-based or functional assay
cynomolgus CD3 [4] = target: T2, cynomolgus CD3 (cynomolgus (Macaca fascicularis), UniProt Q95LI5 22-198; Q95LI8 22-171; Q95LI7 23-181); assay: FACS on 293T-cynoCD3mix cells
T2 construct: whole, on cells; composition of the 'mix' not defined; also called cynoCD3

human CD3 [5] = target: T1, human CD3; assay: FACS on Jurkat cells; remark: listed apart in the source
human CD3 [6] = target: T1, human CD3; assay: cell-based or functional assay; remark: listed apart in the source
cynomolgus CD3 [7] = target: T2, cynomolgus CD3; assay: FACS on 293T-cynoCD3mix cells; remark: listed apart in the source
human CD3 [8] = target: T1, human CD3; assay: FACS on Jurkat cells; remark: listed apart in the source
human CD3 [9] = target: T1, human CD3; assay: FACS on Jurkat cells; remark: listed apart in the source
human CD3 [10] = target: T1, human CD3; assay: cell-based or functional assay; remark: listed apart in the source

T1 sequence (P07766 23-207, chain 1 of 3): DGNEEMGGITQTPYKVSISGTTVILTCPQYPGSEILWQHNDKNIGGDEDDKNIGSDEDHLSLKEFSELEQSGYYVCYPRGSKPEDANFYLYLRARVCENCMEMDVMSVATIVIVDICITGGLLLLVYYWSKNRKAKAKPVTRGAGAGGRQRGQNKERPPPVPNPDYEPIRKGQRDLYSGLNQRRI
T1 sequence (P04234 22-171, chain 2 of 3): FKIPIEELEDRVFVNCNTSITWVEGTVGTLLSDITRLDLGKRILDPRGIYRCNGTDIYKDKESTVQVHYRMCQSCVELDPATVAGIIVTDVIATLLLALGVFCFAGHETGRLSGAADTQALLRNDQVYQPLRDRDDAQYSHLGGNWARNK
T1 sequence (P09693 23-182, chain 3 of 3): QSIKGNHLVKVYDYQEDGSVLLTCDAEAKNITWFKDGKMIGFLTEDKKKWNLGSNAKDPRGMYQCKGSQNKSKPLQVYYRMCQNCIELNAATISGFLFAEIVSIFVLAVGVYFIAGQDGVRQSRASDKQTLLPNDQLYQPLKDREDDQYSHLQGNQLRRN
T2 sequence (Q95LI5 22-198, chain 1 of 3): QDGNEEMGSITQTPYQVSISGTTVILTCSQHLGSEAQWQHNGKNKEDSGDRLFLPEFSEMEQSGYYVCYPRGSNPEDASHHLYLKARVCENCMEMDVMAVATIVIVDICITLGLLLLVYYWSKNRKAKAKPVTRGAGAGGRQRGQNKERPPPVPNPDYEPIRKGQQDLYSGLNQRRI
T2 sequence (Q95LI8 22-171, chain 2 of 3): as the sequence (P04234 22-171, chain 2 of 3) above, with I5V, N15K, I20V, S32T, D33N, I34N, T64A, S74N, V83L, H141R counted along it
T2 sequence (Q95LI7 23-181, chain 3 of 3): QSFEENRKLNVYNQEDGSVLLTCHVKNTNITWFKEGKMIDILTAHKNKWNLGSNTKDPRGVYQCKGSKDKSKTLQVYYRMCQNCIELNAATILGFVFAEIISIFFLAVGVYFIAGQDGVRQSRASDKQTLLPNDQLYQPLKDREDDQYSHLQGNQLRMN

B1: 4-F12-F1-A4 (antibody, V domains shown)
VH: EVKLVESGGGLVKPGGSLKLSCAASGFTFSSYTMSWIRQTPAKRLEWVATISSGGGNTFYADSVKGRFTISRDNARNTLNLQMSSLRSEDTAMYYCARSLYYYDGTYVRKDYYAMDYWGQGSSVTVSS
VL: DIQMTQSPASLSVSVGETVTISCRASENIFSNLAWYQQKQGKSPQLLVYAATNLAEGVPSRFSGSRSGTQFSLKINSLQSEDFGSYYCQQFWGTPWTFGGGTKLEVK
notes: mouse monoclonal (hybridoma) antibody
Human CD3 [1]
  FACS MFI: 16800 MFI

B2: 16-F2-C11-D9 (antibody, V domains shown)
VH: EVQLQQSGPELVKPGASVKMSCKASGYTFTDFNIHWVKQSLGKSLEWIGYINPNDGGSTYNQKFKGKATLTINKSSSSAYMELRSLTSEDSAVYYCAIPFLDSWGQGTSVTVSS
VL: TLMMTQSPSSMYASLGERVTITCKASQDINSYLRWYQQKPGKSPKTLIYGASSLVDGVPSRFSGRGSGQDYSLTISSLEYEDMGIYYCLQYDEVPLTFGAGTKLELK
notes: as for B1
Human CD3 [1]
  FACS MFI: 80300 MFI

B3: 7-D8-G12-E4 (antibody, V domains shown)
VH: EVKLVESGGGLVKPGGSLKLSCAASGFTFSSYPMSWVRQTPAKRLEWVATISSGGGNTYYPDSVKGRFTISRDNARNTLYLQMSSLRSEDTAMYYCARGLYWYFDVWGAGTTVTVSS
VL: DIVLTQSPLSLPVSLGDQASISCRSSQSIAHSNGDTYLEWYLQNPGQSPKLLIYKVSNRISGVPDRFSGSGSGTDFTLKISRVEAEDLGVYYCFQGSHVPYTFGGGTKLEIK
notes: as for B1
Human CD3 [1]
  FACS MFI: 65200 MFI

B4: 2-F12-A6-G2 (antibody, V domains shown)
VH: EVQLVESRPGLVAPSQSLSITCTVSGFSLTSYGVSWVRQPPGKGLEWLGVIWGDGNTNYNSDLKTSLSISKDNSKSQVFLKLDSLQTDDTATYYCAKVSYWYFDVWGTGTTVTVSS
VL: DIQLTQPPASLSASVGETVTITCRASENIYSYLAWYQQKQGKSPQLLVYNAKTLPEGVPSRFSGSGSGTQFSLKINSLQPEDFGTYYCQHHYGTPPTFGTGTKLELK
notes: as for B1
Human CD3 [1]
  FACS MFI: 53800 MFI

B5: 40-C12-C10-E9 (antibody, V domains shown)
VH: EVQLQLSGPELVKPGASVKMSCKASGYTFSSYVIHWVKQKPGQGLEWIGYINPYNDVIKYNEKFKGKATLTSDKSSSTAYMELSSLTSEDSAVYYCARDSYYSYDGFAYWGQGTLVTVSA
VL: QIVLTQSPAIMSASPGEKVTMTCSASSSVSYMHWYQQKSGTSPKRWIYDTSKLASGVPARFSGSGSGTSYSLTISSMEAEDAATYYCQQWSSNPPTFGGGTKVEIK
notes: as for B1
Human CD3 [1]
  FACS MFI: 13100 MFI

B6: ch126A11A4 (antibody, V domains shown)
VH: QVQLQQPGTELVKPGASVKLSCKASGYTFTSYWMHWVKQRPEQGLEWIGNINPSNGDTNYNEKFKSKATLTVDKASNTAYMQLSSLTSEDSAVYYCGRDRSSQYYFDYWGQGTTLTVSS
VL: DIVMSQSPSSLAVSAGEKVTMSCKSSQSLLNSRTRKNYLAWYQQKPGQSPKLLIYWASTRESGVPDRFTGSGSGTDFTLTISSVQAEDLAVYFCKQSFILRTFGGGTKLEIK
Human CD3 [2]
  EC50: 0.567 nM
  Top signal: 1760
Human CD3 [3]
  EC50 (Jurkat-NFAT-luciferase activation): 33.6 nM
  Top signal (Jurkat-NFAT-luciferase activation): 682
Cynomolgus CD3 [4]
  EC50: 2.91 nM
  Top signal: 57000

B7: ch147E11E2 (antibody, V domains shown)
VH: B6 VH with A16T, E42G, D57A, A75S, N77S, G97A
VL: B6 VL with T34S, F93Y, K95T, F98Y, I99T
Human CD3 [2]
  EC50: 0.419 nM
  Top signal: 2780
Human CD3 [5]
  EC50: 0.649 nM
  Top FACS signal: 2780
Human CD3 [3]
  EC50 (Jurkat-NFAT-luciferase activation): 33 nM
  Top signal (Jurkat-NFAT-luciferase activation): 421
Human CD3 [6]
  EC50_Fold change (Jurkat-NFAT-luciferase activation, normalized to ch147E11E2): 1 fold
  Top FACS signal_Fold change (Jurkat-NFAT-luciferase activation, normalized to ch147E11E2): 1 fold
Cynomolgus CD3 [4]
  EC50: 2.19 nM
  Top signal: 53900
Cynomolgus CD3 [7]
  EC50: 1.23 nM
  Top signal: 17800

B8: ch147C6F3 (antibody, V domains shown)
VH: B6 VH with T30D, E42G, I51L, D57E, T58I, S66H, A75S, N77S, G97S
VL: B6 VL with M21L, P46S, I54M, S82T, S83N, F93Y, F98Y
Human CD3 [2]
  EC50: 1.77 nM
  Top signal: 2280
Human CD3 [3]
  EC50 (Jurkat-NFAT-luciferase activation): 57.4 nM
  Top signal (Jurkat-NFAT-luciferase activation): 428
Cynomolgus CD3 [4]
  EC50: 4.15 nM
  Top signal: 55200

B9: BMK-TCB (antibody, V domains shown)
VH: not shown
VL: QAVVTQEPSLTVSPGGTVTLTCGSSTGAVTTSNYANWVQEKPGQAFRGLIGGTNKRAPGTPARFSGSLLGGKAALTLSGAQPEDEAEYYCALWYSNLWVFGGGTKLTVL
notes: benchmark anti-CD3 antibody; also called anti-CD3 antibody developed by Roche
Human CD3 [2]
  EC50: 1.91 nM
  Top signal: 3140
Human CD3 [8]
  EC50: 1.6 nM
  Top FACS signal: 1740
Human CD3 [9]
  EC50: 1.3 nM
  Top FACS signal: 2570
Human CD3 [5]
  EC50: 1.35 nM
  Top FACS signal: 2370
Human CD3 [3]
  EC50 (Jurkat-NFAT-luciferase activation): 59.4 nM
  Top signal (Jurkat-NFAT-luciferase activation): 753
Human CD3 [10]
  EC50_Fold change (Jurkat-NFAT-luciferase activation, normalized to ch40-C12-C10-E9; mean): 8.17 fold
  Top FACS signal_Fold change (Jurkat-NFAT-luciferase activation, normalized to ch40-C12-C10-E9; mean): 0.48 fold
Human CD3 [6]
  EC50_Fold change (Jurkat-NFAT-luciferase activation, normalized to ch147E11E2; mean): 2.24 fold
  Top FACS signal_Fold change (Jurkat-NFAT-luciferase activation, normalized to ch147E11E2; mean): 0.5 fold

B10: BMK-B219 (antibody, V domains shown)
VH: EVQLVESGGGLVQPGGSLRLSCAASGFTFNTYAMNWVRQAPGKGLEWVARIRSKYNNYATYYAASVKGRFTISRDDSKNSLYLQMNSLKTEDTAVYYCARHGNFGNSYVSWFAYWGQGTLVTVSS
VL: B9 VL with A2T, G23R, E40Q, F46P, A80V
notes: benchmark anti-CD3 antibody; also called anti-CD3 antibody developed by JNJ (Johnson & Johnson)
Human CD3 [2]
  EC50: 1.47 nM
  Top signal: 3000
Human CD3 [3]
  EC50 (Jurkat-NFAT-luciferase activation): 68.4 nM
  Top signal (Jurkat-NFAT-luciferase activation): 811
Cynomolgus CD3 [4]
  EC50: 4.34 nM
  Top signal: 60000

B11: 8-B12-F9-B11 (antibody, V domains shown)
VH: EVQLVESGGGIVKPGGSRKLSCAASGFTFSDYGMHWVRQAPEKGLEWIAYISSASGKIYYADTVKGRFTISRDNAKNILFLQMTSLRSEDTAMYYCARVLRWSVNYVMDYWGQGTSVTVSS
VL: DIVMTQSPSSLAVSAGEKVTMNCESSQSVLYSSNQKNYLAWYQQKPGQSPKLLIYWASTRESGVPDRFTGTGSGTDFTLTISSVQAEDLAVYYCHQYLSSWTFGGGTKLEIK
notes: as for B1
Human CD3 [1]
  FACS MFI: 67100 MFI

B12: 20-E11-E11-C2 (antibody, V domains shown)
VH: EVQLQQSGPEVVKPGASVKISCKASGYTFTDYYMNWVKQSHGKNLEWIGDINPIHGGISSNQKFSDKATLTVDKSSNTAYLELRSLTSEDSAIYYCARRIYYGYDWYFDVWGTGTTVTVSS
VL: DIVLSQSPAIMSASPGERVTMTCSASSSVTSRYFFWYQQKPGSSPKLWIYSTSNLASGVPVRFSGSGSGTSYSLTINNMAAEDAATYYCQQYSTSPSTFGAGTKLELK
notes: as for B1
Human CD3 [1]
  FACS MFI: 55200 MFI

B13: hu147E2-L3H4 (antibody, V domains shown)
VH: EVQLVQSGAEVKKPGSSVKVSCKASGYTFTSYWMHWVRQAPGQGLEWIGNINPSNGATNYNEKFKSRATLTVDKSTSTAYMELSSLRSEDTAVYYCARDRSSQYYFDYWGQGTTVTVSS
VL: DIQMTQSPSSLSASVGDRVTITCKSSQSLLNSRSRKNYLAWYQQKPGKAPKLLIYWASTRESGVPSRFSGSGSGTDFTLTISSLQPEDFATYYCTQSYTLRTFGGGTKVEIK
notes: humanized 147E11E2; also called hu14E2-L3H4
Human CD3 [5]
  EC50: 0.671 nM
  Top FACS signal: 2680
Human CD3 [6]
  EC50_Fold change (Jurkat-NFAT-luciferase activation, normalized to ch147E11E2): 2.12 fold
  Top FACS signal_Fold change (Jurkat-NFAT-luciferase activation, normalized to ch147E11E2): 0.6 fold
Cynomolgus CD3 [7]
  EC50: 1.29 nM
  Top signal: 16100

B14: 7-D9-G10-H2 (antibody, V domains shown)
VH: EVQLQQSGPELVKPGASVKISCKASGYSFTGYFMNWVKQSHGKSLEWIGRFNPYNGDTFYNQNFKGKATLTVDKSSSTAHMELRSLTSEDSAVYYCARGDYWGQGTTLTVSS
VL: not shown
notes: as for B1
Human CD3 [1]
  FACS MFI: 51000 MFI

Source: US20250223358A1 (ANTENGENE BIOLOGICS, published 2025)
